{"source": "paper PMC5573083", "about": "“Structural and Functional Analysis of the Escherichia coli Acid-Sensing Histidine Kinase EvgS” (Journal of Bacteriology, 2017)", "proteins": {"B1": {"name": "EvgS-Cyt (entire cytoplasmic region of the Escherichia coli histidine kinase EvgS, residues 553 to 1193) (domain or fragment, UniProt P30855 553-1193, looked up)", "chain": "WGFYLLRSVRRRKVIQGDLENQISFRKALSDSLPNPTYVVNWQGNVISHNSAFEHYFTADYYKNAMLPLENSDSPFKDVFSNAHEVTAETKENRTIYTQVFEIDNGIEKRCINHWHTLCNLPASDNAVYICGWQDITETRDLINALEVEKNKAIKATVAKSQFLATMSHEIRTPISSIMGFLELLSGSGLSKEQRVEAISLAYATGQSLLGLIGEILDVDKIESGNYQLQPQWVDIPTLVQNTCHSFGAIAASKSIALSCSSTFPEHYLVKIDPQAFKQVLSNLLSNALKFTTEGAVKITTSLGHIDDNHAVIKMTIMDSGSGLSQEEQQQLFKRYSQTSAGRQQTGSGLGLMICKELIKNMQGDLSLESHPGIGTTFTITIPVEISQQVATVEAKAEQPITLPEKLSILIADDHPTNRLLLKRQLNLLGYDVDEATDGVQALHKVSMQHYDLLITDVNMPNMDGFELTRKLREQNSSLPIWGLTANAQANEREKGLSCGMNLCLFKPLTLDVLKTHLSQLHQVAHIAPQYRHLDIEALKNNTANDLQLMQEILMTFQHETHKDLPAAFQALEAGDNRTFHQCIHRIHGAANILNLQKLINISHQLEITPVSDDSKPEILQLLNSVKEHIAELDQEIAVFC", "notes": "EvgS sensor histidine kinase, Escherichia coli, cytoplasmic domains comprising amino acid residues 553 to 1193; expected monomer mass printed as 72.3 kDa; Amplified from pBADEvgS and cloned NdeI-HindIII into a modified pET41c in which the GST tag is replaced by a C-terminal His8 tag; By the forward primer a start methionine precedes R553 (ATGCGCTCAGTTCGTCGTCGT); No cleavage of the tag is …"}}, "molecular_target": "the molecule itself", "experiment": "AUC; purified protein dialysed against 50 mM Tris-HCl pH 7; OD280 of 1 (printed as 0.1 μM protein); 40,000 rpm, 20°C; 200 scans; analysed with Sedfit; monomer to dimer", "data": [{"protein": "B1", "values": [{"measurement": "stoichiometry N", "result": 2}]}]}
